Values quoted from earlier work, collected in US20020147170A1 (priority 2000, published 2002).

System: α1 adrenergic receptor
Settings: cited from earlier work

Molecule | constitutive activity
Asp142Ala mutant: α1 adrenergic receptor DRY motif mutant (protein, UniProt P18841 1-515, looked up, variant D142A) Alpha-1B adrenergic receptor: MNPDLDTGHNTSAPAQWGELKDANFTGPNQTSSNSTLPQLDVTRAISVGLVLGAFILFAIVGNILVILSVACNRHLRTPTNYFIVNLAIADLLLSFTVLPFSATLEVLGYWVLGRIFCDIWAAVDVLCCTASILSLCAISIARYIGVRYSLQYPTLVTRRKAILALLSVWVLSTVISIGPLLGWKEPAPNDDKECGVTEEPFYALFSSLGSFYIPLAVILVMYCRVYIVAKRTTKNLEAGVMKEMSNSKELTLRIHSKNFHEDTLSSTKAKGHNPRSSIAVKLFKFSREKKAAKTLGIVVGMFILCWLPFFIALPLGSLFSTLKPPDAVFKVVFWLGYFNSCLNPIIYPCSSKEFKRAFMRILGCQCRSGRRRRRRRRLGACAYTYRPWTRGGSLERSQSRKDSLDDSGSCMSGSQRTLPSASPSPGYLGRGAQPPLELCAYPEWKSGALLSLPEPPGRRGRLDSGPLFTFKLLGEPESPGTEGDASNGGCDATTDLANGQPGFKSNMPLAPGHF | constitutively active
Arg143Lys mutant: α1 adrenergic receptor DRY motif mutant (protein, UniProt P18841 1-515, looked up, variant R143K) Alpha-1B adrenergic receptor: MNPDLDTGHNTSAPAQWGELKDANFTGPNQTSSNSTLPQLDVTRAISVGLVLGAFILFAIVGNILVILSVACNRHLRTPTNYFIVNLAIADLLLSFTVLPFSATLEVLGYWVLGRIFCDIWAAVDVLCCTASILSLCAISIDKYIGVRYSLQYPTLVTRRKAILALLSVWVLSTVISIGPLLGWKEPAPNDDKECGVTEEPFYALFSSLGSFYIPLAVILVMYCRVYIVAKRTTKNLEAGVMKEMSNSKELTLRIHSKNFHEDTLSSTKAKGHNPRSSIAVKLFKFSREKKAAKTLGIVVGMFILCWLPFFIALPLGSLFSTLKPPDAVFKVVFWLGYFNSCLNPIIYPCSSKEFKRAFMRILGCQCRSGRRRRRRRRLGACAYTYRPWTRGGSLERSQSRKDSLDDSGSCMSGSQRTLPSASPSPGYLGRGAQPPLELCAYPEWKSGALLSLPEPPGRRGRLDSGPLFTFKLLGEPESPGTEGDASNGGCDATTDLANGQPGFKSNMPLAPGHF | constitutively active
Cys128Phe mutant: α1 adrenergic receptor mutant in transmembrane domain III (protein, UniProt P18841 1-515, looked up, variant C128F) Alpha-1B adrenergic receptor: MNPDLDTGHNTSAPAQWGELKDANFTGPNQTSSNSTLPQLDVTRAISVGLVLGAFILFAIVGNILVILSVACNRHLRTPTNYFIVNLAIADLLLSFTVLPFSATLEVLGYWVLGRIFCDIWAAVDVLFCTASILSLCAISIDRYIGVRYSLQYPTLVTRRKAILALLSVWVLSTVISIGPLLGWKEPAPNDDKECGVTEEPFYALFSSLGSFYIPLAVILVMYCRVYIVAKRTTKNLEAGVMKEMSNSKELTLRIHSKNFHEDTLSSTKAKGHNPRSSIAVKLFKFSREKKAAKTLGIVVGMFILCWLPFFIALPLGSLFSTLKPPDAVFKVVFWLGYFNSCLNPIIYPCSSKEFKRAFMRILGCQCRSGRRRRRRRRLGACAYTYRPWTRGGSLERSQSRKDSLDDSGSCMSGSQRTLPSASPSPGYLGRGAQPPLELCAYPEWKSGALLSLPEPPGRRGRLDSGPLFTFKLLGEPESPGTEGDASNGGCDATTDLANGQPGFKSNMPLAPGHF | constitutively active
Asn63Ala mutant: α1 adrenergic receptor mutant at conserved Asn63 (protein, UniProt P18841 1-515, looked up, variant N63A) Alpha-1B adrenergic receptor: MNPDLDTGHNTSAPAQWGELKDANFTGPNQTSSNSTLPQLDVTRAISVGLVLGAFILFAIVGAILVILSVACNRHLRTPTNYFIVNLAIADLLLSFTVLPFSATLEVLGYWVLGRIFCDIWAAVDVLCCTASILSLCAISIDRYIGVRYSLQYPTLVTRRKAILALLSVWVLSTVISIGPLLGWKEPAPNDDKECGVTEEPFYALFSSLGSFYIPLAVILVMYCRVYIVAKRTTKNLEAGVMKEMSNSKELTLRIHSKNFHEDTLSSTKAKGHNPRSSIAVKLFKFSREKKAAKTLGIVVGMFILCWLPFFIALPLGSLFSTLKPPDAVFKVVFWLGYFNSCLNPIIYPCSSKEFKRAFMRILGCQCRSGRRRRRRRRLGACAYTYRPWTRGGSLERSQSRKDSLDDSGSCMSGSQRTLPSASPSPGYLGRGAQPPLELCAYPEWKSGALLSLPEPPGRRGRLDSGPLFTFKLLGEPESPGTEGDASNGGCDATTDLANGQPGFKSNMPLAPGHF | constitutively active
